Laboratory results from US20250002557A1 (SUZHOU LIGHT FERRY BIOMED, published 2025).

B1: VEGF-D (ligand, UniProt O43915 89-205, looked up)
chain: FAATFYDIETLKVIDEEWQRTQCSPRETCVEVASELGKSTNTFFKPPCVNVFRCGGCCNEESLICMNTSTSYISKQLFEISVPLTSVPELVPVKVANHTGCKCLPTAPRHPYSIIRR
notes: Bought reagent
B2: PDGF-BB (ligand, UniProt P01127 82-190, looked up)
chain: SLGSLTIAEPAMIAECKTRTEVFEISRRLIDRTNANFLVWPPCVEVQRCSGCCNNRNVQCRPTQVQLRPVQVRKIEIVRKKPIFKKATVTLEDHLACKCETVAAARPVT
notes: Bought reagent
B3: VEGFR2-Fc (Met1-Glu764) (Fc fusion)
chain: ASVGLPSVSLDLPRLSIQKDILTIKANTTLQITCRGQRDLDWLWPNNQSGSEQRVEVTECSDGLFCKTLTIPKVIGNDTGAYKCFYRETDLASVIYVYVQDYRSPFIASVSDQHGVVYITENKNKTVVIPCLGSISNLNVSLCARYPEKRFVPDGNRISWDSKKGFTIPSYMISYAGMVFCEAKINDESYQSIMYIVVVVGYRIYDVVLSPSHGIELSVGEKLVLNCTARTELNVGIDFNWEYPSSKHQHKKLVNRDLKTQSGSEMKKFLSTLTIDGVTRSDQGLYTCAASSGLMTKKNSTFVRVHEKPFVAFGSGMESLVEATVGERVRIPAKYLGYPPPEIKWYKNGIPLESNHTIKAGHVLTIMEVSERDTGNYTVILTNPISKEKQSHVVSLVVYVPPQIGEKSLISPVDSYQYGTTQTLTCTVYAIPPPHHIHWYWQLEEECANEPSQAVSVTNPYPCEEWRSVEDFQGGNKIEVNKNQFALIEGKNKTVSTLVIQAANVSALYKCEAVNKVGRGERVISFHVTRGPEITLQPDMQPTEQESVSLWCTADRSTFENLTWYKLGPQPLPIHVGELPTPVCKNLDTLWKLNATMFSNSTNDILIMELKNASLQDQGDYVCLAQDRKTKKRHCVVRQLTVLERVAPTITGNLENQTTSIGESIEVSCTASGNPPPQIMWFKDNETLVEDSGIVLKDGNRNLTIRRVRKEDEGLYTCQACSVLGCAKVEAFFIIEGAQEKTNLE
notes: also called VEGFR2-Fc with the full extracellular domain; Full VEGFR2 extracellular domain; not shown: Fc part
B4: VEGF-C (ligand, UniProt P49767 112-227, looked up)
chain: AHYNTEILKSIDNEWRKTQCMPREVCIDVGKEFGVATNTFFKPPCVSVYRCGGCCNSEGLQCMNTSTSYLSKTLFEITVPLSQGPKPVTISFANHTSCRCMSKLDVYRQVHSIIRR
notes: Bought reagent

How the values were obtained:
VEGFR2-Fc (Met1-Glu764) [1] = target: B3; experiment: SPR Biacore T200 (Example 8)
VEGFR2-Fc (Met1-Glu764) [2] = target: B3; experiment: SPR, PDGF coupled to CM5 chip, VEGFR2-Fc in flow; row label printed PDGF-BR
Description: Nevertheless, it was found in the preliminary detection experiments that PDGF family molecules (purchased from R&D Systems Inc.) were prone to produce non-specific binding in the chip, resulting in a pseudo-elevation in measured values, such that the detection could not be completed. Therefore, PDGF-AA, PDGF-AB, PDGF-BB and PDGF-CC molecules were separately loaded through a coupling reaction on a CM5 chip, followed by influx of the recombinant receptor molecules, thus effectively eliminating the impact of non-specific binding on affinity determination.

VEGF-C = target: B4; experiment: ELISA binding to VEGF-C, absorbance 450 nm
Description: VEGF-A165, VEGF-C and VEGF-D polypeptide molecules were purchased from ACROBiosystems Inc. VEGF molecules at 100-300 ng/well prepared in PBS were used for coating overnight at 4° C., the next day, the plates were washed with PBS, and 1% BSA solution was added to block for 2 hours at room temperature, after which the plates were washed again with PBS. […] Goat anti-human Fc secondary antibody conjugated with horseradish peroxidase diluted in PBT was added, followed by incubation at room temperature and 300 rpm for 1 hour, after that, the plates were washed three times with PBST solution. Then TMB was added for color development, terminated with 5% hydrochloric acid solution, and finally, the OD values at 450 nm were read using a microplate reader.

VEGF-D [3] = target: B1; experiment: blocking ELISA: His-VEGF-D premixed with sample, binding to coated VEGFR2-Fc read with anti-His-HRP
Description: (§1) During the blocking period, each recombinant receptor molecule was serially diluted from high to low concentrations, mixed evenly with 100 ng/well of VEGF-C or VEGF-D (both labeled with His-tag), allowing for incubation at room temperature for 30 minutes. […] The plates were washed with PBST, then anti-polyhistidine secondary antibody conjugated with horseradish peroxidase was added to allow for incubation and binding at room temperature for 1 hour. Then the plates were washed with PBST, TMB was added for color development, terminated with 5% hydrochloric acid solution, and finally, the OD values at 450 nm were read using a microplate reader.

VEGF-D [4] = target: B1; experiment: blocking ELISA: His-VEGF-D premixed with sample, binding to coated VEGFR3-Fc read with anti-His-HRP
Description: (§2) During the blocking period, each recombinant receptor molecule was serially diluted from high to low concentrations, mixed evenly with 10 ng/well of VEGF-C or 500 ng/well of VEGF-D (both labeled with His-tag), allowing for incubation at room temperature for 30 minutes. […] The plates were washed with PBST, then TMB was added for color development, terminated with 5% hydrochloric acid solution, and finally, the OD values at 450 nm were read using a microplate reader.

VEGF-D [5] = target: B1; experiment: blocking ELISA: His-VEGF-D premixed with sample, binding to coated VEGFR2-Fc read with anti-His-HRP; remark: listed apart in the source
Description: as §1

VEGF-D [6] = target: B1; experiment: blocking ELISA: His-VEGF-D premixed with sample, binding to coated VEGFR3-Fc read with anti-His-HRP; remark: listed apart in the source
Description: as §2

| Binder | Kd (VEGFR2-Fc (Met1-Glu764) [1]) [µM] | koff (VEGFR2-Fc (Met1-Glu764) [1]) [s⁻¹] | kon (VEGFR2-Fc (Met1-Glu764) [1]) [M⁻¹ s⁻¹] | further results |
| --- | --- | --- | --- | --- |
| B1 | 0.021 | 0.000673 | 32100 |  |
| B2 |  |  |  | Kd (VEGFR2-Fc (Met1-Glu764) [2]): 0.0141 µM |
| B3 |  |  |  | EC50 (VEGF-C): 0.269 µM; EC50 (VEGF-D [3]): 0.0315 µM; EC50 (VEGF-D [4]): 0.0334 µM; EC50 (VEGF-D [5]): 0.0315 µM; EC50 (VEGF-D [6]): 0.0334 µM |
| B4 | 0.0167 | 0.000452 | 27100 |  |
